Measurements as given in US20150191543A1 (University of California, published 2015).
Values belong to the binder of their own block, whether it stands above or below them.

Assays:
[1] = biological target: T1, soluble CD8αβ heterodimer fusion protein (mouse, UniProt P01731 28-151; P10300 22-138); assay: SPR, Biacore 3000; minibody captured by goat anti-mouse IgG Fc, sCD8αβ as analyte at 0-100 nM
Procedure: FIG. 15A-to FIG. 15C depict the kinetic analysis of minibody binding to sCD8αβ antigen using SPR Biacore 3000. […] Soluble monovalent antigen was then flowed over the chip at 100 (green), 50 (magenta), 25 (red), 12.5 (dark blue), 6.25 (light blue), and 0 (black) nM.
(§1) Surface Plasmon Resonance (SPR) analysis was performed on a Biacore 3000 (Precision Antibody, Inc.). Briefly, Mbs were captured using goat anti-mouse IgG Fc and sCD8αβ antigen was flowed over the chip at 100, 50, 25, 12.5, 6.25 and 0 nM. The equilibrium constant (KD) was calculated from the observed on (kₐ) and off (kd) rates.

[2] = biological target: T1, soluble CD8αβ heterodimer fusion protein; assay: SPR, Biacore 3000; minibody captured by goat anti-mouse IgG Fc, soluble monomeric sCD8αβ flowed at 0-100 nM
Procedure: as §1
SPR kinetic analysis was performed using the Biacore 3000 with immobilized minibody and soluble monomeric sCD8αβ.

[3] = biological target: T2, mouse CD8α, Lyt2.1 allele (mouse, UniProt P01731 28-247); assay: statement in Example 5; supported there only by in vivo immunoPET and biodistribution in C3H mice
T2 construct: Position 78 is counted on mature CD8a, not on the precursor; On the cells it is paired with CD8β (TK-1 is Lyt2.1+, Lyt3+); also called CD8a Lyt2.1; CD8-Lyt2.1
T2 sequence (P01731 28-247 M105V limits assumed): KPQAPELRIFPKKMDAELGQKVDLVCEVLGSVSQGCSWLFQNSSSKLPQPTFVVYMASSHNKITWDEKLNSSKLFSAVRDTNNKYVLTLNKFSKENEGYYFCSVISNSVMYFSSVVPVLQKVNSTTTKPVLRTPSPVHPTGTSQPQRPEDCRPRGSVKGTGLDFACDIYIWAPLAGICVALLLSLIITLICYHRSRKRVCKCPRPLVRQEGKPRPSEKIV

[4] = biological target: T3, mouse CD8α, Lyt2.2 allele (mouse, UniProt P01731 28-247); assay: statement in Example 5; supported there only by in vivo immunoPET and biodistribution in C57Bl/6 mice
T3 construct: On the cells it is paired with CD8β (BW58 is Lyt2.2+, Lyt3+); also called CD8a Lyt2.2; CD8-Lyt2.2
T3 sequence (P01731 28-247 limits assumed): as the sequence (P01731 28-247 M105V limits assumed) above, with V78M counted along it

T1 sequence (P10300 other isoform, or with tags, fused parts or gaps): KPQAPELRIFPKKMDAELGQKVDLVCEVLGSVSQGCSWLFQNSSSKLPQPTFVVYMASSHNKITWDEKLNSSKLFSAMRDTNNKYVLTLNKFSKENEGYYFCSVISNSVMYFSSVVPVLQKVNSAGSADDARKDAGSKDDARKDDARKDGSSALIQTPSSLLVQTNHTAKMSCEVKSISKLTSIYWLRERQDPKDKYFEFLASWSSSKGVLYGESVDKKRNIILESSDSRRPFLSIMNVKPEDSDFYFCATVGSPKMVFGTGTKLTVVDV

Ka [1]: 3e+07 M⁻¹
koff [1]: 0.0076 s⁻¹
kon [1]: 230000 M⁻¹ s⁻¹
Kd [2]: 33 nM
B1: anti-mCD8 YTS 169 minibody (other)
scFv: EVKLQESGGGLVQPGRSLKLSCAASGFNFNDYWMGWVRQAPGKGLEWIGEINKDSSTINYTPSLKDKFTISRDNAQNTLYLQMSKLGSEDTAIYYCARARGMMVLIIPHYFDYWGQGVMVTVSSGSTSGGGSGGGSGGGGSSDIVLTQSPAMAMSPGERITISCRASESVSTRMHWYQQKPGQQPKLLIYGASNLESGVPARFSGSGSGTDFTLTIDPVEANDTATYFCQQSWYDPWTFGGGTKLELKLEPRGPTIKPCPPCKCPAPNLLGGPGSVRAPQVYVLPPPEEEMTKKQVTLTCMVTDFMPEDIYVEWTNNGKTELNYKNTEPVLDSDGSYFMYSKLRVEKKNWVERNSYSCSVVHEGLHNYHTTKSFSRTPGKAAAAGHLPETGAGHHHHHHAAA
notes: Minibody (scFv-hinge-CH3 homodimer); also called YTS169 Mb

binding result [3]: no binding
binding result [4]: binds
B2: anti-mCD8 2.43 Cys-diabody (other)
scFv: EVQLVESGGGLVQPGRSLKLSCAASGFTFSNYYMAWVRQAPTKGLEWVAYINTGGGTTYYRDSVKGRFTISRDDAKSTLYLQMDSLRSEDTATYYCTTAIGYYFDYWGQGVMVTVSSGGGGSDIQLTQSPASLSASLGETVSIECLASEDIYSYLAWYQQKPGKSPQVLIYAANRLQDGVPSRFSGSGSGTQYSLKISGMQPEDEGDYFCLQGSKFPYTFGAGTKLELKAAAGCGGHHHHHH
notes: Cys-diabody (scFv dimer, about 51 kDa)

Ka [1]: 3e+07 M⁻¹
koff [1]: 0.0041 s⁻¹
kon [1]: 120000 M⁻¹ s⁻¹
Kd [2]: 34 nM
B3: anti-mCD8 2.43 minibody (other)
scFv: EVQLVESGGGLVQPGRSLKLSCAASGFTFSNYYMAWVRQAPTKGLEWVAYINTGGGTTYYRDSVKGRFTISRDDAKSTLYLQMDSLRSEDTATYYCTTAIGYYFDYWGQGVMVTVSSGSTSGGGSGGGSGGGGSSDIQLTQSPASLSASLGETVSIECLASEDIYSYLAWYQQKPGKSPQVLIYAANRLQDGVPSRFSGSGSGTQYSLKISGMQPEDEGDYFCLQGSKFPYTFGAGTKLELKLEPRGPTIKPCPPCKCPAPNLLGGPGSVRAPQVYVLPPPEEEMTKKQVTLTCMVTDFMPEDIYVEWTNNGKTELNYKNTEPVLDSDGSYFMYSKLRVEKKNWVERNSYSCSVVHEGLHNYHTTKSFSRTPGKAAAAGHLPETGAGHHHHHHAAA
notes: Minibody (scFv-hinge-CH3 homodimer, about 80 kDa; 19% higher multimers); Some assays used the NOTA/64Cu-labelled or FITC-labelled protein
